The assay has as its target T1, Tra1 (S. cerevisiae, UniProt P38811 1-3744).
T1 construct: Tra1, S. cerevisiae, largest subunit of SAGA (433 kDa), endogenous subunit of the purified native complex; Subunit of native SAGA purified through a 3xFLAG tag; The complex was mildly cross-linked with glutaraldehyde (GraFix) before cryo-EM; also called Tra1 module; head; source: endogenous, S. cerevisiae, purified as part of native SAGA (anti-FLAG M2 resin, FLAG peptide elution, GraFix)
The assay is described as follows: cryo-EM structure; native S. cerevisiae SAGA purified by anti-FLAG and GraFix (glycerol/glutaraldehyde gradient), 40 mM HEPES pH 7.4, 150 mM NaCl, 0.01% Tween-20, vitrified on lacey carbon grids with graphene oxide; consensus map 3.1 Å, Tra1 2.9 Å, core 3.2 Å; published models (PDB 6t9j, 6t9k) fitted into the map. To be noted: both partners purified.

T1 sequence (P38811 whole entry): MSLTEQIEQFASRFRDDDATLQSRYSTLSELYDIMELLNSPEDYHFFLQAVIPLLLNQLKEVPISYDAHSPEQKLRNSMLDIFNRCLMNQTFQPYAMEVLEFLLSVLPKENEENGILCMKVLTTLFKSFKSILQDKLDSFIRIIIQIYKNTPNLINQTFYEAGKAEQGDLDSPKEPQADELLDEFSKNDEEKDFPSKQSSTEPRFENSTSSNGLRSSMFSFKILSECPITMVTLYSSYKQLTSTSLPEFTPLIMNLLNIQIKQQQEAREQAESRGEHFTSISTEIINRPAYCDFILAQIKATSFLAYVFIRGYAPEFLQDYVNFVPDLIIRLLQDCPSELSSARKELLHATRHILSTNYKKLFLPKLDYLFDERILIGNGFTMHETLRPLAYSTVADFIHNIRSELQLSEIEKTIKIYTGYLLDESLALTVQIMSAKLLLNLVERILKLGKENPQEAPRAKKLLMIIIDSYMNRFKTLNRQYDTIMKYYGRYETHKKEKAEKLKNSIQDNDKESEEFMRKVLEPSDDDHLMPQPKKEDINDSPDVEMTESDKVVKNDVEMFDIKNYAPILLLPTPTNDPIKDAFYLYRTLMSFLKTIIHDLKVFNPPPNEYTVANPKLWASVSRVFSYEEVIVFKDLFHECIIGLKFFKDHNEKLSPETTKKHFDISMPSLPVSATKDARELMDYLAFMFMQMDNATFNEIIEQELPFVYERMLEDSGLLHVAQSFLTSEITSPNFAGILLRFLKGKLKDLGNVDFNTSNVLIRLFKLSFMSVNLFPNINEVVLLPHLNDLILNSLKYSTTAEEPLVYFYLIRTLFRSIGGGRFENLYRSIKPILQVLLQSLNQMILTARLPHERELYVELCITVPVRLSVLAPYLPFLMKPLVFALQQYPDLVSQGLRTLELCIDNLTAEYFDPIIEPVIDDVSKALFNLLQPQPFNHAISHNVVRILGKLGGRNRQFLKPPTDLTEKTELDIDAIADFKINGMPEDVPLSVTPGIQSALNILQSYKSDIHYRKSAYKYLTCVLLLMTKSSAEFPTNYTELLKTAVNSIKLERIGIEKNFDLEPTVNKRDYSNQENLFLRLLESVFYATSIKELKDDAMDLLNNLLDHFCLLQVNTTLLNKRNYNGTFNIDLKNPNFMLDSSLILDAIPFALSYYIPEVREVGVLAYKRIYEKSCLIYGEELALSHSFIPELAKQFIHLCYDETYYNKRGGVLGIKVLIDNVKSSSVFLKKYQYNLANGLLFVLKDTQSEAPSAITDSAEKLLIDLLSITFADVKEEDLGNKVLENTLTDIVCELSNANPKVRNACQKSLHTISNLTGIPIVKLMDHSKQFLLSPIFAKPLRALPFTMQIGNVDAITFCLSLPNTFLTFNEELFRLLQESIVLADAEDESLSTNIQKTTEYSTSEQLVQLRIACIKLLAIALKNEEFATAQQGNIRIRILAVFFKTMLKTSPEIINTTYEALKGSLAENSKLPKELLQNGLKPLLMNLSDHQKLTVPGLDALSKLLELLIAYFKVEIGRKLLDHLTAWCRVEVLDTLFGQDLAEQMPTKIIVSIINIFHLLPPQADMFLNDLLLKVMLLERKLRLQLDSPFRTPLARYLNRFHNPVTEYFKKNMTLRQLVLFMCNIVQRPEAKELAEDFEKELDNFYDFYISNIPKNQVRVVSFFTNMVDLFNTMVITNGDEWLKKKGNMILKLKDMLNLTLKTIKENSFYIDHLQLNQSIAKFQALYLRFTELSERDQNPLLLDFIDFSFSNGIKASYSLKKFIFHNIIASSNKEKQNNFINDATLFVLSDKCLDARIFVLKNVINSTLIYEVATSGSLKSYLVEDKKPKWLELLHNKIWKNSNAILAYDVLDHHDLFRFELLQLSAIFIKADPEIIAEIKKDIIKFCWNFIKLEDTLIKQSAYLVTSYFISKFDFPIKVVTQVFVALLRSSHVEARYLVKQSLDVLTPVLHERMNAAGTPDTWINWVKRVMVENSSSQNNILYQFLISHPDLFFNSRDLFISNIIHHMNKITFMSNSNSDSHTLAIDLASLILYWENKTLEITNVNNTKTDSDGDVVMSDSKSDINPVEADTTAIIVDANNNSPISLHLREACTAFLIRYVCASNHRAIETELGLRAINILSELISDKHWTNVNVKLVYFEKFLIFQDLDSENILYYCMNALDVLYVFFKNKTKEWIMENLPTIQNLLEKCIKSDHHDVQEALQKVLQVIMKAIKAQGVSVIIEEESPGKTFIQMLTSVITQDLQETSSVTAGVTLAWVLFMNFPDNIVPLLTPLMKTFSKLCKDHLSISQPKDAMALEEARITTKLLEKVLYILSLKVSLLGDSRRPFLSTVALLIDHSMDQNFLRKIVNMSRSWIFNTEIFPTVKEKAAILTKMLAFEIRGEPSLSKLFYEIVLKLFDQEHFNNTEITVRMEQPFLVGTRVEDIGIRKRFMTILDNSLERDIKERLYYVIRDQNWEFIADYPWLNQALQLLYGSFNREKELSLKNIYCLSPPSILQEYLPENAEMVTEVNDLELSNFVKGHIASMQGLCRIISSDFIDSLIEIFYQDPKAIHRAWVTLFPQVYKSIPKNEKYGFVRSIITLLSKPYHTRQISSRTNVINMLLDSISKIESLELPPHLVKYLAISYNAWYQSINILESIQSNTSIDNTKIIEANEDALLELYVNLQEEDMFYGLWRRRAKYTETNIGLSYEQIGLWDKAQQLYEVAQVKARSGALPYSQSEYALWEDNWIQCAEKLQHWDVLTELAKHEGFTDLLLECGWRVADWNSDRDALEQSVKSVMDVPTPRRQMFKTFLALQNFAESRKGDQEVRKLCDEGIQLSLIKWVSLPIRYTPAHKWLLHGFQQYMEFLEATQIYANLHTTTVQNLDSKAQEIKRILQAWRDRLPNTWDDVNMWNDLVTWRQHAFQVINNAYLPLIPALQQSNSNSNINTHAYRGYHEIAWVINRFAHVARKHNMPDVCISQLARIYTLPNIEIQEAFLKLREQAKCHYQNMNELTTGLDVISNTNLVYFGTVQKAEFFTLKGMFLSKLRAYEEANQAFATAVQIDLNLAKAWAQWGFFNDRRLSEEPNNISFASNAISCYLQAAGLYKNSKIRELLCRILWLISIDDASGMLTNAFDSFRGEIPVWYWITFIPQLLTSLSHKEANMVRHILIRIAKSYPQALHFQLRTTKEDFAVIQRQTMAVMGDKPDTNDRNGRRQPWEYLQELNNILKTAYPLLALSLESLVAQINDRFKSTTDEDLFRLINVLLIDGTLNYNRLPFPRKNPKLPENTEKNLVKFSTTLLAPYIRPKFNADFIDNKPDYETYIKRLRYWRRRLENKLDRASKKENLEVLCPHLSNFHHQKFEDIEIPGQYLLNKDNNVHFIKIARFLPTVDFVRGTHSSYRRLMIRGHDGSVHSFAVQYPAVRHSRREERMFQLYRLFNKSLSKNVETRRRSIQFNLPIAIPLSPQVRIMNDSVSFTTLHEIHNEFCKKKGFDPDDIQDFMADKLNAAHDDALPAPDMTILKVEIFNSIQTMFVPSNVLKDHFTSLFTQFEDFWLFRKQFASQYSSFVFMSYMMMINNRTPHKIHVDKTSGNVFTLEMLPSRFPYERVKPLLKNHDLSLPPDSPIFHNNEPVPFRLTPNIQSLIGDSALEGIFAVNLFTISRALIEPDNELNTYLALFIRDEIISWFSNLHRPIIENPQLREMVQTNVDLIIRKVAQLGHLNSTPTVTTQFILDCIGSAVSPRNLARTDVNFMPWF

B1: Taf12 (natural protein, S. cerevisiae, UniProt Q03761 1-539, looked up)
chain: MSSNPENSGVNANNNTGTGNADAITGAQQNMVLQPRQLQEMAAKFRTLLTEARNVGETTPRGKELMFQAAKIKQVYDALTLNRRRQQAAQAYNNTSNSNSSNPASIPTENVPNSSQQQQQQQQQTRNNSNKFSNMIKQVLTPEENQEYEKLWQNFQVRHTSIKEKETYLKQNIDRLEQEINKQTDEGPKQQLQEKKIELLNDWKVLKIEYTKLFNNYQNSKKTFYVECARHNPALHKFLQESTQQQRVQQQRVQQQQQQQQQQQQQQQQQQQQQQQRQGQNQRKISSSNSTEIPSVTGPDALKSQQQQQNTITATNNPRGNVNTSQTEQSKAKVTNVNATASMLNNISSSKSAIFKQTEPAIPISENISTKTPAPVAYRSNRPTITGGSAMNASALNTPATTKLPPYEMDTQRVMSKRKLRELVKTVGIDEGDGETVIDGDVEELLLDLADDFVTNVTAFSCRLAKHRKSDNLEARDIQLHLERNWNIRIPGYSADEIRSTRKWNPSQNYNQKLQSITSDKVAAAKNNGNNVASLNTKK
notes: Taf12, S. cerevisiae, subunit of the SAGA core module, endogenous subunit of the purified native complex; Subunit of native SAGA purified through a 3xFLAG tag; The complex was mildly cross-linked with glutaraldehyde (GraFix) before cryo-EM; also called Taf12 core subunit; source: endogenous, S. cerevisiae, purified as part of native SAGA (anti-FLAG M2 resin, FLAG peptide elution, GraFix)
In the case of B1, the binding result is “binds”.

B2: Spt20 (natural protein, S. cerevisiae, UniProt P50875 1-604, looked up)
chain: MSANSPTGNDPHVFGIPVNATPSNMGSPGSPVNVPPPMNPAVANVNHPVMRTNSNSNANEGTRTLTREQIQQLQQRQRLLLQQRLLEQQRKQQALQNYEAQFYQMLMTLNKRPKRLYNFVEDADSILKKYEQYLHSFEFHIYENNYKICAPANSRLQQQQKQPELTSDGLILTKNNETLKEFLEYVARGRIPDAIMEVLRDCNIQFYEGNLILQVYDHTNTVDVTPKENKPNLNSSSSPSNNNSTQDNSKIQQPSEPNSGVANTGANTANKKASFKRPRVYRTLLKPNDLTTYYDMMSYADNARFSDSIYQQFESEILTLTKRNLSLSVPLNPYEHRDMLEETAFSEPHWDSEKKSFIHEHRAESTREGTKGVVGHIEERDEFPQHSSNYEQLMLIMNERTTTITNSTFAVSLTKNAMEIASSSSNGVRGASSSTSNSASNTRNNSLANGNQVALAAAAAAAAVGSTMGNDNNQFSRLKFIEQWRINKEKRKQQALSANINPTPFNARISMTAPLTPQQQLLQRQQQALEQQQNGGAMKNANKRSGNNATSNNNNNNNNLDKPKVKRPRKNAKKSESGTPAPKKKRMTKKKQSASSTPSSTTMS
notes: Spt20, S. cerevisiae, subunit of the SAGA core module, endogenous subunit of the purified native complex; Subunit of native SAGA purified through a 3xFLAG tag; The complex was mildly cross-linked with glutaraldehyde (GraFix) before cryo-EM; also called Spt20 core subunit; source: endogenous, S. cerevisiae, purified as part of native SAGA (anti-FLAG M2 resin, FLAG peptide elution, GraFix)
For B2, the binding result is given as “binds”.

These data come from article PMC9296673, “Conformational landscape of the yeast SAGA complex as revealed by cryo-EM” (Scientific Reports, 2022).
